Reference: patent publication US20020137076

Target: RNase A (UniProt P61823)
Assay: inhibition

UniProt P61823, sequence (P61823 27-150): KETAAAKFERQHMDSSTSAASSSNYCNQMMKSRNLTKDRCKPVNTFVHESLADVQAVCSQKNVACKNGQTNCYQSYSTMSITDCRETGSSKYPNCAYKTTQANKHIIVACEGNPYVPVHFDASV

polyG
Ki (2 ug/ml polyG, polyC substrate, 100 mM MES, 100 mM NaCl pH 6.0, non-competitive): 10 nM | Ki (20 ug/ml polyG, polyC substrate, 100 mM MES, 100 mM NaCl pH 6.0, non-competitive): 87.3 nM | Ki (Dixon, 40 mM Tris-HCl pH 7.9, 6 mM MgCl2, 10 mM NaCl, 2 mM spermidine): 40 nM | Ki (Dixon, 40 mM Tris-HCl pH 7.9, 6 mM MgCl2, 10 mM NaCl, no spermidine): 10 nM
